Values quoted from earlier work, collected in US20260009081A1, “CLONAL HEMATOPOIESIS AND CYTOKINE TARGETS” (TRUSTEES OF BOSTON UNIVERSITY, priority 2018, published 2026).

Target: T1, IL-1β (Homo sapiens, UniProt P01584)
T1 construct: endogenous in cells; host or cells: CANTOS trial patients (endogenous cytokine)

canakinumab: IL-1β neutralizing antibody; interleukin 1 beta monoclonal antibody
side effect of therapy (patients): infection side effect
major adverse cardiovascular events (patients with stable coronary artery disease and elevated C-reactive protein): can reduce major adverse cardiovascular events
